In the RNAGym collection of RNA variant scans (doi:10.1073/pnas.2313332121):

B1: TPR t1 (parent)
chain: GACCAAUCUGCCCUCAGAGCUCGAGAACAUCUUCGGAUGCAGAGGAGGCAGGCUUCGGUGGCGCGAUAGCGCCAACGUCCUCAACCUCCAAUGCAUCCCACCACAUGAUGAUGCCUGAAGAGCCUUGGUUUUUUG

Variants of: B1
Assay: polymerase ribozyme fitness, log enrichment relative to wild type (log ratio); higher = more active; in vitro selection for triplet polymerase activity
How it was run: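 After PCR construction and transcription, each subunit's mutant library from a heterodimeric triplet polymerase ribozyme was annealed with a biotinylated primer, the partner subunit and triplets. Incubation was frozen, at −7 °C, and extended constructs were gel-excised, bound to streptavidin beads and amplified by RT-PCR, in one selection round done in triplicate. Fitness is the logarithm of a genotype's enrichment divided by that of the wild type, from inverse-variance-weighted replicate averages of Illumina-sequenced inputs and outputs. The base of the logarithm is 2, and genotypes needed ≥10 input reads and ≥1 read per output.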
For C8A U130G U132A, the “polymerase ribozyme fitness (log ratio)” value was -2.74.
In the case of G61A C97G C124U, the “polymerase ribozyme fitness (log ratio)” value is reported as -2.04.
For U14G G113U, the “polymerase ribozyme fitness (log ratio)” value was -5.7.
In the case of C13A A16U C94U A111U C123G U130C, the “polymerase ribozyme fitness (log ratio)” value is reported as -6.28.
For C4G C115A, the “polymerase ribozyme fitness (log ratio)” value was -3.11.
For G61C C101A U112G, the “polymerase ribozyme fitness (log ratio)” value was -3.98.
For C34G C124U, the “polymerase ribozyme fitness (log ratio)” value was -4.28.
For U7A U21C, the “polymerase ribozyme fitness (log ratio)” value was 0.0698.
For U32A U59C, the “polymerase ribozyme fitness (log ratio)” value was -3.8.
With C40U C80U C99U C124U the “polymerase ribozyme fitness (log ratio)” value was -2.92.
In the case of C3U A50C C73A C85U G120U, the “polymerase ribozyme fitness (log ratio)” value is reported as -1.28.
For A46G, the “polymerase ribozyme fitness (log ratio)” value was -0.119.
In the case of G48U A50U G60A C86G, the “polymerase ribozyme fitness (log ratio)” value is reported as -2.89.
In the case of C99U A111C, the “polymerase ribozyme fitness (log ratio)” value is reported as -2.83.
In the case of G58U C82U C94U C114A, the “polymerase ribozyme fitness (log ratio)” value is reported as -2.23.
With A2G C79A the “polymerase ribozyme fitness (log ratio)” value was -0.844.
For C64G G120U, the “polymerase ribozyme fitness (log ratio)” value was -6.39.
In the case of C28G C73U, the “polymerase ribozyme fitness (log ratio)” value is reported as -2.15.
With G69U G110A A118C the “polymerase ribozyme fitness (log ratio)” value was 0.45.
For C22G G61A G93A, the “polymerase ribozyme fitness (log ratio)” value was -3.75.
In the case of G10U C13A A16U G110C U125A, the “polymerase ribozyme fitness (log ratio)” value is reported as -6.47.
With C73U G93C C124U U125C the “polymerase ribozyme fitness (log ratio)” value was -1.39.
In the case of C86U U130C, the “polymerase ribozyme fitness (log ratio)” value is reported as 0.0697.
For G61A A95U A119U G120C C123A, the “polymerase ribozyme fitness (log ratio)” value was 1.22.
In the case of A27U C101A, the “polymerase ribozyme fitness (log ratio)” value is reported as -4.18.
In the case of A6U A84C C86G G93U, the “polymerase ribozyme fitness (log ratio)” value is reported as -2.38.
For C12U G52U C53G U78G, the “polymerase ribozyme fitness (log ratio)” value was -0.0807.
With C11A C12G C70A A111C the “polymerase ribozyme fitness (log ratio)” value was -3.93.
For U7A A103C, the “polymerase ribozyme fitness (log ratio)” value was -4.75.
In the case of C31U C115A G120A, the “polymerase ribozyme fitness (log ratio)” value is reported as -4.78.
With G10U G51A G61U A100C G113A G120A the “polymerase ribozyme fitness (log ratio)” value was -4.29.
With A91C A103C the “polymerase ribozyme fitness (log ratio)” value was -7.08.
In the case of C4G, the “polymerase ribozyme fitness (log ratio)” value is reported as -1.33.
For C70U C115G U116C, the “polymerase ribozyme fitness (log ratio)” value was -4.43.
For A29G U55G G58A C72G U131C U133G, the “polymerase ribozyme fitness (log ratio)” value was -2.75.
With G120C U126A the “polymerase ribozyme fitness (log ratio)” value was -0.0406.
For C20G C115G, the “polymerase ribozyme fitness (log ratio)” value was -4.85.
With C12G A46U C102A the “polymerase ribozyme fitness (log ratio)” value was -2.85.
In the case of G61A A91C C94G A105C U109A A119C, the “polymerase ribozyme fitness (log ratio)” value is reported as -7.38.
With C8G G48U G61U G93U U112A C124A the “polymerase ribozyme fitness (log ratio)” value was -0.568.
In the case of C3U U9C C49A C70U C76A C115A, the “polymerase ribozyme fitness (log ratio)” value is reported as -0.878.
For G10C C15A A50U C115U, the “polymerase ribozyme fitness (log ratio)” value was -5.25.
In the case of A95U U130C, the “polymerase ribozyme fitness (log ratio)” value is reported as -0.986.
With U9C U130G the “polymerase ribozyme fitness (log ratio)” value was -0.0168.
In the case of A74U G113A, the “polymerase ribozyme fitness (log ratio)” value is reported as -1.11.
In the case of A29U G48C C82G A118U, the “polymerase ribozyme fitness (log ratio)” value is reported as -2.03.
With C97U C114U the “polymerase ribozyme fitness (log ratio)” value was -2.99.
In the case of C12A G127U, the “polymerase ribozyme fitness (log ratio)” value is reported as -1.39.
In the case of C40U G57C A90C A103U U112G, the “polymerase ribozyme fitness (log ratio)” value is reported as -6.33.
In the case of G45U G110A, the “polymerase ribozyme fitness (log ratio)” value is reported as -2.13.
In the case of U33C C124A, the “polymerase ribozyme fitness (log ratio)” value is reported as -2.98.
In the case of G35A C94G C123G U129C, the “polymerase ribozyme fitness (log ratio)” value is reported as -5.78.
In the case of U9G G69A, the “polymerase ribozyme fitness (log ratio)” value is reported as -2.25.
With A24G A46U C72G G93C G120U C124U the “polymerase ribozyme fitness (log ratio)” value was -5.77.
With C101G G122A the “polymerase ribozyme fitness (log ratio)” value was -2.93.
In the case of A6C A108G U129G, the “polymerase ribozyme fitness (log ratio)” value is reported as -3.64.
For C13U A18G C49G G77U, the “polymerase ribozyme fitness (log ratio)” value was -4.43.
For A27U G71A U96A U109A, the “polymerase ribozyme fitness (log ratio)” value was -6.15.
In the case of U9C A68G C86A C99A, the “polymerase ribozyme fitness (log ratio)” value is reported as -6.98.
With A27U U54A the “polymerase ribozyme fitness (log ratio)” value was -2.8.
For C12A A100C A121C, the “polymerase ribozyme fitness (log ratio)” value was 1.43.
With G23C G58A G61A C94G A111C the “polymerase ribozyme fitness (log ratio)” value was -7.65.
In the case of C13A C15G U106A G117C, the “polymerase ribozyme fitness (log ratio)” value is reported as -0.827.
For A18U C40U A46C C82A C86A C124G, the “polymerase ribozyme fitness (log ratio)” value was -4.93.
In the case of G19U C72U A84C, the “polymerase ribozyme fitness (log ratio)” value is reported as -2.82.
With A6C C8U C89U the “polymerase ribozyme fitness (log ratio)” value was -0.206.
In the case of A95G G110U U130G U132A, the “polymerase ribozyme fitness (log ratio)” value is reported as -1.43.
With A74G C123G the “polymerase ribozyme fitness (log ratio)” value was 1.31.
In the case of C82A G122A, the “polymerase ribozyme fitness (log ratio)” value is reported as -0.963.
With C4U A6U G45A C80U C101A the “polymerase ribozyme fitness (log ratio)” value was -3.66.
With C64G U106A the “polymerase ribozyme fitness (log ratio)” value was -5.51.
In the case of U92A G113A, the “polymerase ribozyme fitness (log ratio)” value is reported as -2.8.
With G10U G61A C123G the “polymerase ribozyme fitness (log ratio)” value was 1.03.
With A2U C56A C64U G120C the “polymerase ribozyme fitness (log ratio)” value was -3.86.
In the case of G45A G63A C104A, the “polymerase ribozyme fitness (log ratio)” value is reported as -3.61.
With G63C C85G the “polymerase ribozyme fitness (log ratio)” value was -1.96.
In the case of G44C G61A A66G A75G, the “polymerase ribozyme fitness (log ratio)” value is reported as -2.01.
In the case of C28U G60A C72G G110C C115G G120U, the “polymerase ribozyme fitness (log ratio)” value is reported as -7.22.
In the case of C13A C28G C34A A84C G110C, the “polymerase ribozyme fitness (log ratio)” value is reported as -1.53.
With G45U C56U A121U the “polymerase ribozyme fitness (log ratio)” value was 0.651.
With U14A C72G the “polymerase ribozyme fitness (log ratio)” value was -2.35.
For G19U G61C, the “polymerase ribozyme fitness (log ratio)” value was -4.85.
For A18U A43U A83G C89G G110U U125A, the “polymerase ribozyme fitness (log ratio)” value was -5.8.
In the case of C34G C73U C104G U116C A121C G122U, the “polymerase ribozyme fitness (log ratio)” value is reported as -6.01.
